B1: TPR t1 (parent)
chain: GACCAAUCUGCCCUCAGAGCUCGAGAACAUCUUCGGAUGCAGAGGAGGCAGGCUUCGGUGGCGCGAUAGCGCCAACGUCCUCAACCUCCAAUGCAUCCCACCACAUGAUGAUGCCUGAAGAGCCUUGGUUUUUUG

Variants of: B1
Assay: polymerase ribozyme fitness, log enrichment relative to wild type (log ratio); higher = more active; in vitro selection for triplet polymerase activity
How it was run: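 Fitness compares each genotype's enrichment to that of the wild type on a logarithmic scale, averaging replicates with inverse-variance weights. The logarithm is base 2. Enrichment came from Illumina sequencing of input and output libraries after one triplicate round of in vitro selection, which included frozen incubation at −7 °C, of PCR-built, transcribed mutant libraries of each subunit of a heterodimeric triplet polymerase ribozyme. Only genotypes with ≥10 input reads and ≥1 read per output were kept.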

Row | Variant | polymerase ribozyme fitness (log ratio)
1 | G17A U21A G39C C56U | -4.02
2 | G19A G61A C104A G107A A121G | -5.44
3 | G19A G61A U125G | -2.54
4 | G19U A37U | -3.17
5 | A18G G48A U116G | -3.25
6 | A18C C53A C62U C72U C85G G122U | -4.78
7 | A18C C20A U54A U96A | -3.05
8 | G19C G48U | -2.5
9 | G17A A18C C62G G120C | -4.41
10 | A18U C28U G51A U59G G117C | -6.92
11 | A18C A27G A111U G128C | -6.38
12 | A18C C104A | -4.52
13 | G17C G36A C114G G127A | -5.69
14 | G17C A41U G51U C64U C104U G120A | -6.91
15 | G17C A91C | -4.65
16 | G17A C40G G60A A83C A84C A121C | -3.61
17 | G19C C49G U92A U125G | -4.13
18 | G17U A105C U109A C124A | -5.37
19 | A18G C49A C64U C79U G120C G128U | -3.3
20 | A18C C40U A41G C56G C70U | -4.84
21 | G19U C86G | -3.71

Row | Variant | polymerase ribozyme fitness (log ratio)
22 | G17C C40U A43U U130G | -3.78
23 | G19A U87G A105C A111C | -4.37
24 | A18U C94U | -3.18
25 | G19A C62U G93U | -4.23
26 | A18C C34A C99A C123A U126A | -5.25
27 | A18U U59A A68G A91U G120U | -6.77
28 | G17U C34A | -3.65
29 | G17U G39U C88U A91C G117U | -3.62
30 | A18G C64U G69C U78G G113C | -3.05
31 | G19C G71U C114A G128A | -2.59
32 | G19A C85U | -3.47
33 | G19C C86G A121G | -0.947
34 | G17C G19U G63U A91C C124A | -5.7
35 | G19U C20G G57U C70G C85U C101U U112G | -6.53
36 | A18G G39C | -4.37
37 | G19U A119G G128A | -3.71
38 | G19A G77U | -2.96
39 | G19A G60A G93U | -3.84
40 | A18G G39C C94A U112G C124G | -5.87
41 | A18U U21C G36A C72U C114U | -4.3
42 | A18C C114G | -2.59

Row | Variant | polymerase ribozyme fitness (log ratio)
43 | G17C C80G C124A | -8.59
44 | A18U C40U A46C C82A C86A C124G | -4.93
45 | G19A G71C C115U G128U | -5.92
46 | G19A G61A U132C | -2.94
47 | G17A G19U U55A C82A C114A | -3.12
48 | G19A G71C C124A | -2.56
49 | G17U G61A U81G C101G G117C G128U | -7.2
50 | A18U A90C G122A | -2.49
51 | A18C C115U | -2.17
52 | A18U G61C U112A G122U | -6.15
53 | A18G C89A C114G U133A | -6.53
54 | G17U C40A G42A C49A | -6.46
55 | G17C G61U G93U C114A G127U | -6
56 | A18C C88G G120A | -2.81
57 | A18U A29G G42C G110U U112G | -5.42
58 | G19C C20U C40A G61A U87A U112A | -5.56
59 | A18C G19A C40U C49U A50U C89U C124U | -5.69
60 | A18U C56U C94U A111C C114U | -5.39
61 | A18U C28U A50U C98A | -7.62
62 | A18U C40U | -3.83
63 | A18C C20U G36U C56G | -3.57

Row | Variant | polymerase ribozyme fitness (log ratio)
64 | A18U A74C A90U A121C U129A | -1.29
65 | A18C A95C G128U | -5.8
66 | A18C U32C A95C G117A U129C | -3.97
67 | A18G G93A | -3.21
68 | G19A G48U C49U G69U G93U | -4.49
69 | A18U G25C G57C C89G U92G C115U | -5.83
70 | A18G U87G U109A | -2.3
71 | A18U G52A C72A C73A U112A | -3.87
72 | G19U U21G C49A G71A C114A | 0.71
73 | G17C G61U | -3.71
74 | G17A G36U C56U | -4.9
75 | G17C C88U | -4.49
76 | G17C A26G A37U C53G G57A A91G G93U A111U U129G | -6.27
77 | G19A A43U C49U U59A C124U | -1.73
78 | A18G C31G C88U C114G | -5.82
79 | G17U C102U | -4.64
80 | A18C C28U | -5.11
81 | G19C G61C C88A | -4.49
82 | G17A C40U G60A C79G | -6.54
83 | G19C U87A | -2.58
